Reference: paper PMC5009721

Legend:
[1] = biological target: T1, RNA polymerase II;TBP (TATA-binding protein);TFIIB;TFIIF (human (HeLa cells);human;human;human, UniProt P24928;P30876;P19387;O15514;P19388;P61218;P62487;P52434;P36954;P62875;P52435;P53 …, |||); test: single-molecule TIRF colocalization, immobilized Pol II
RNA polymerase II [2] = biological target: T2, RNA polymerase II (human (HeLa cells), UniProt P24928;P30876;P19387;O15514;P19388;P61218;P62487;P52434;P36954;P62875;P52435;P53 …); test: EMSA
[3] = biological target: T1, RNA polymerase II;TBP (TATA-binding …); test: EMSA
[4] = biological target: T1, RNA polymerase II;TBP (TATA-binding …); test: single-molecule TIRF colocalization, immobilized Pol II; remark: listed apart in the source
RNA polymerase II [5] = biological target: T2, RNA polymerase II; test: as above

T1 sequence (P20226 whole entry, chain 13 of 2): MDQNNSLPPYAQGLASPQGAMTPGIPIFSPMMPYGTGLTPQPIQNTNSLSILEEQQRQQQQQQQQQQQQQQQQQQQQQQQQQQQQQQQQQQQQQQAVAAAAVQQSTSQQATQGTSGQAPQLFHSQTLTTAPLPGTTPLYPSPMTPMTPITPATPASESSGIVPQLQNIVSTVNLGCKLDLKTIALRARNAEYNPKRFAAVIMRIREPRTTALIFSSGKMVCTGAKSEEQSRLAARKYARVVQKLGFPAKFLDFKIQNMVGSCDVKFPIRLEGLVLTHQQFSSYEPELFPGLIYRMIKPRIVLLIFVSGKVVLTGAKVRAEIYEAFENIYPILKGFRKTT
T1 sequence (Q00403 whole entry, chain 14 of 2, further chain): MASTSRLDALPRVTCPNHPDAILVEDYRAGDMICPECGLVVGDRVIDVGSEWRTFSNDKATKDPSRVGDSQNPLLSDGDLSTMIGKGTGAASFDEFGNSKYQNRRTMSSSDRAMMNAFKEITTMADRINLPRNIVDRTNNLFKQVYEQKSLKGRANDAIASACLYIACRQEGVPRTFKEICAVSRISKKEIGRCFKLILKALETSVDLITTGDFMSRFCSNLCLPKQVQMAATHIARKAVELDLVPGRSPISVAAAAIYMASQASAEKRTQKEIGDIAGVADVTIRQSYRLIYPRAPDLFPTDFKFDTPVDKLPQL

B1: 18 bp TATA DNA (dsDNA)
DNA 1: CGTCCCTTTTATAGCCTG
DNA 2: CAGGCTATAAAAGGGACG
binding result [1]: binds

B2: AdML three-piece heteroduplex (-40 to +37), Cy3/Cy5, quencher (dsDNA)
DNA 1: CCTGAGGTTAGTGTGAGTAGTGATTAAAGATAGTGATGAGGACGAACGCGCCCCCACCCCCTTTTATAGCCCCCCTT
DNA 2: AAGGGGGGCTATAAAAGGGGGTGGGGGCGCGAAGCAGGAGTAGACTATCTTTAATCACTA
DNA 3: CTCACACTAACCTCAGG
binding result (RNA polymerase II [2]): binds | binding result [3]: binds

B3: AdML three-piece heteroduplex (-40 to +37), Cy3/Cy5, no quencher, no biotin (dsDNA)
DNA 1: CCTGAGGTTAGTGTGAGTAGTGATTAAAGATAGTGATGAGGACGAACGCGCCCCCACCCCCTTTTATAGCCCCCCTT
DNA 2: AAGGGGGGCTATAAAAGGGGGTGGGGGCGCGAAGCAGGAGTAGACTATCTTTAATCACTA
DNA 3: CTCACACTAACCTCAGG
binding result [4]: binds | binding result (RNA polymerase II [5]): binds
